Source: PMC10164722, “Crystal Structure of Mesaconyl-CoA Hydratase from Methylorubrum extorquens CM4” (Journal of Microbiology and Biotechnology, 2023)

Biological target: the molecule itself
Assay: crystal structure; MeMeaC with malic acid, 1.95 Å, space group P6_(3), one molecule in the asymmetric unit; trimer by crystallographic symmetry (PDBePISA also suggested a trimer)

B1: mesaconyl-CoA hydratase from Methylorubrum extorquens CM4 (enzyme, UniProt C5B1K4 1-348, looked up)
chain: MKTNPGRFFEDFRLGETIRHATPRTVTTGDVALYTALYGPRFAVQSSDAFAKAIGHPASPLDDLLTFHVVFGKTVPDVSLNALANLGYAEGGFHRPVYPGETLSTVSEVIGLKESSNRQTGVVYVRSTGSDASGQTVLSYCRWVLVRKRDPEAKIAEEHVPQLAKVVNPADLAHALPPLDPAAYDNALAGSPHRFADYAVGEKIDHVDGMTVEEAEHQIATRLFQNTAKVHFDAVATKETKFGKRLIYGGHVISLARALSFNGLANAFAIGGINAGRHVAPLFAGDTVYAWSEVLETAELPGRSDIGALRLRTVATKNQSCGAYPDKQGEGYDPSVILDLDYWAFIPR
notes: Mesaconyl-CoA hydratase MeaC (locus Mchl_4075) of Methylorubrum extorquens CM4; subdomains printed as residues 1~147 (MeaC^N), 148~190 (MeaC^Br) and 191~348 (MeaC^C); Surmised: cloning into pET30a by NdeI/XhoI with a reverse primer that has no stop codon would put the vector's His6 tag (after Leu-Glu) at the C-terminus; also called MeMeaC; MeaC; source: E. coli BL21(DE3)-T1R, purified (Ni-NTA, …)
- stoichiometry N: 3
